Patent US7105290 (PROCTER AND GAMBLE, dated 2006)
Each block holds one binder with its values, some of them ahead of it.

How the values were obtained:
[1] = target: T1, BRK-2 co-expressed with t-BRK-3 (BRK-2/t-BRK-3 complex) (chicken; human, UniProt Q05438 14-502; Q13873 27-540); assay: competition, 10 nM unlabeled ligand against [^125I]-BMP-4; crosslinking and immunoprecipitation with antiserum 1380
T1 construct: Both receptors co-transfected into COS cells; also called BRK-2 and BRK-3 receptor complex; BRK-2 plus t-BRK-3
Procedure: Following the crosslinking, cells are washed three times with ice-cold PBS, then lysed with 1 ml of RIP buffer (20 mM TrisCl, pH 8.0, 100 mM NaCl, 1 mM Na_2EDTA, 0.5% Nonidet P-40, 0.5% sodium deoxycholate, 10 mM sodium iodide, and 1% bovine serum albumin) for 10 min. The lysate is centrifuged in a microcentrifuge at 13,000 rpm for 10 min at 4° C. The supernatant is transferred to a fresh tube and made 0.1% in SDS. To remove any existing antibody present in the lysate, 50 µl of PANSORBIN (Calbiochem, La Jolla, Calif.; a 10% solution of *Staphylococcus aureus*) is added. After a 30 minute incubation at 4° C., the lysate is centrifuged as before, and the supernatant again transferred to a fresh tube.
To precipitate the complex of antigen:primary antibody, 25–50 µl of PANSORBIN is then added and incubated 30 min on ice. The complex is pelleted at 13,000 rpm for 10 min in a microcentrifuge and the supernatant discarded. The pellet is washed twice in RIP buffer containing 0.1% SDS, and once in TNEN buffer (20 mM Tris, pH 8.0, 100 mM NaCl, 1 mM EDTA, 0.5% NP-40). The pellet is resuspended in 25 µl of 1× sample loading buffer. (Alternatively, the pellet may be washed twice with TNEN buffer, with similar results.) The sample is boiled for 5 min, centrifuged for 5 min, and subjected to gel electrophoresis after loading of the samples onto a 7.5% SDS-polyacrylamide gel.

[2] = target: T2, mouse BMP receptor kinase protein m-BRK-3 (mouse), O35607; assay: whole cell binding of radiolabeled ligand, COS-1 cells transfected with pJT6-mBRK-3S or pJT6-mBRK-3L; conditions: remark: other sources report otherwise; scale: times the level seen with mock transfected cells
T2 chain: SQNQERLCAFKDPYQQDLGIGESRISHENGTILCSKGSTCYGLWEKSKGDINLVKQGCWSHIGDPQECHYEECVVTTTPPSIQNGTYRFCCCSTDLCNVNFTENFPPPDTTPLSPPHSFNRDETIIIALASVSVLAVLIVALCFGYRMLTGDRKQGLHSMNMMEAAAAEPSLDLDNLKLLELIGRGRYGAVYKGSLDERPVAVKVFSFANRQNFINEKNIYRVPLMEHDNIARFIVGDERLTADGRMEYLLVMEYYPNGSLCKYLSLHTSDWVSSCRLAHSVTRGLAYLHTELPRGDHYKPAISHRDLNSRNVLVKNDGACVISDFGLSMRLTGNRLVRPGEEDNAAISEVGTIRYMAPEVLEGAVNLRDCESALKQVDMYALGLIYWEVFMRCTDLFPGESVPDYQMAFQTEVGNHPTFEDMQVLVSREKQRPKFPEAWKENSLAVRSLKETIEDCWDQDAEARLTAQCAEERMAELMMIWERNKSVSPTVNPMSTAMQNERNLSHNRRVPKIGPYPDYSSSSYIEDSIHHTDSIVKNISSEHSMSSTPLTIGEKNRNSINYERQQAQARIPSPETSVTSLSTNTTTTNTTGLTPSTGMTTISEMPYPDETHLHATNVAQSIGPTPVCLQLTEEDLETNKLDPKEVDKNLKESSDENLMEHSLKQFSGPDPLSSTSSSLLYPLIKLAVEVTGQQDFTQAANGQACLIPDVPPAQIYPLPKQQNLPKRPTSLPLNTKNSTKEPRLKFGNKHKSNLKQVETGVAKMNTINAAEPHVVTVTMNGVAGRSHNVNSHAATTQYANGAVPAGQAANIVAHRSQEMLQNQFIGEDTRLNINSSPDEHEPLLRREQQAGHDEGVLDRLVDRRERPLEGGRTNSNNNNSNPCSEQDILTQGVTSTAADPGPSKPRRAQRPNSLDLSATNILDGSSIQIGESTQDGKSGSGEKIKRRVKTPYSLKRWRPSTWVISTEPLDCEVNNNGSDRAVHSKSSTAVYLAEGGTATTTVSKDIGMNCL

T1 sequence (Q05438 14-502 limits assumed, one chain of several): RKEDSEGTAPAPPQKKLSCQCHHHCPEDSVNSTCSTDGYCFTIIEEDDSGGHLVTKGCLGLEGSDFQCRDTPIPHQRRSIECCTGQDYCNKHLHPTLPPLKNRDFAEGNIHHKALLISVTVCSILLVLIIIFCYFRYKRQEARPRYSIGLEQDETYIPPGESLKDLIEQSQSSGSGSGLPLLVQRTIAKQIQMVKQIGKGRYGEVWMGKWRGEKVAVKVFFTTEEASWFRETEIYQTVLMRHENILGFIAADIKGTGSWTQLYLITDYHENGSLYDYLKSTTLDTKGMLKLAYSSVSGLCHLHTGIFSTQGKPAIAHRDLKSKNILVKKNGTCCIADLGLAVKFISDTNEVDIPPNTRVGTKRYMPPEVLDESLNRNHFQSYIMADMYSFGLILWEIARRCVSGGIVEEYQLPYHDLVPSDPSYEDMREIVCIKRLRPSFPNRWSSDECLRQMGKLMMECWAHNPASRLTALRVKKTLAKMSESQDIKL

binding result [1]: binds
B1: bone morphogenetic protein 2 (ligand, UniProt P12643 283-396, looked up)
chain: QAKHKQRKRLKSSCKRHPLYVDFSDVGWNDWIVAPPGYHAFYCHGECPFPLADHLNSTNHAIVQTLVNSVNSKIPKACCVPTELSAISMLYLDENEKVVLKNYQDMVVEGCGCR
notes: also called BMP-2

specific binding of [^125I]-BMP-4 relative to mock transfected cells [2]: 4 to 7
B2: bone morphogenetic protein 4, P12644 293-408 (ligand, UniProt P12644 293-408, looked up)
chain: SPKHHSQRARKKNKNCRRHSLYVDFSDVGWNDWIVAPPGYQAFYCHGDCPFPLADHLNSTNHAIVQTLVNSVNSSIPKACCVPTELSAISMLYLDEYDKVVLKNYQEMVVEGCGCR
modifications: here or on the partner: 125I-labelled when used as tracer ([^125I]-BMP-4; IODOBEADS or chloramine-T method); unlabeled when used as competitor
